According to patent US20230250157A1 (CALIFORNIA INSTITUTE OF TECHNOLOGY, published 2023):

B1: M8a-25 (antibody, V domains shown)
VH: EVQLQQSVAELVRPGASVKLSCTASGFNIKNTYMHWVKQRPEQGLEWIGRIDPSIDHTRYAPKFQGKAVITAFTSSNTAYLQLSSLTSEDTAIYYCAREGGGNYPYYYAIDYWGQGTSVTVSS
VL: DIQMTQSSSSFSVSLGDRVTITCKASEDIYIRLAWYQQRPGNAPRLLISNAISLETGVPSRFSGSGFGKDHTLSITSLQTEDVATYYCQQYWSTPWTFGGGTKLEIK
B2: M8a-28 (antibody, V domains shown)
VH: QVQLQQPGAELVKPGASVKMSCKASGYNFNHYWISWVKQRPGQGLEWIGDIYPLSHFTTYNEKFTNRATLTVDTSSTTAYMQLNSLTSDDSAVFYCARWDYFDSRTFDYWGQGTTLTVSS
VL: DILLTQFPAILSVSPGERVSFSCRASQTIGTNIHWYQQRINGSPRLLIKYASESISGIPSRFSGSGSGTDFSLSINNVESEDIADYYCQQINSWPLTFGAGTKLDLK
B3: HSW-2 Fab (Fab, V domains shown)
VH: QVQLQQSGPELVKPGASVKISCKASGYVFSTSWMSWVKQRPGEGPEWIGRIYPRDGHSSSTGKFKDKATLTADKSSNTAYIHLSSLTSEDSAVYFCARDYGYYYFDYWGQGTTLTVSS
VL: DIQMTQSPASLSASVGEAVTITCRLSENVYSFLAWYQQKQGKSPQLLVYRAKTLAEGVPSRFSGSGSGTQFSLKINSLQPEDFGTYYCQHHYGTPPTFGGGTKLEIK
B4: HSW-2 (antibody, V domains shown)
VH: B3 VH
VL: B3 VL
B5: M8a-34 Fab (Fab, V domains shown)
VH: QVQLQQPGAELVKPGASVKMSCKASGYTFITYWITWVKQRPGQGLEWIGDIYPGGGRTNYNEKFKSKATLTVDTSSSTAYMQLRSLTSEDSAVYYCARYDGNYVGYYYAMDYWGQGTSVTVSS
VL: DIVLTQSPVSLAVSLGQRATISCRASESVDFYGNSFIYWYQQKPGQAPKLLIYRASNLESGIPARFSGSGSRTDFTLTIHPVEADDVATYYCQQSIEDPRTFGGGTKLEIK
B6: M8a-34 (antibody, V domains shown)
VH: B5 VH
VL: B5 VL
B7: M8a-31 (antibody, V domains shown)
VH: EVQLKQSVAELVRPGASVKVSCTASGFNIKNIYMHWVKQRPEQGLDWIGRIDPANGNSRYAPKFQDKATITADTSSNTAYLQLSSLTSEDTAIYYCADEGWGFANWGQGTLVTVSA
VL: DIVMTQSPSSLTVTAGEKVTMSCKSSQSLLNSGNQKNYLTWYQQKVGQPPKLLIYWASTRDPGVPDRFTGSGFGTDFTLTISSVQAEDLAVYYCQNDYSYPLTFGAGTKVELK
B8: M8a-7 (antibody, V domains shown)
VH: QAYLQQSGAEMVRPGASVKMSCKASGYTFNNYNMHWVKQTPSQGLEWIGGFYPGNDDTAYSQKFKGKATLTVDKSSSTAFMHLSSLTSEDSAVYFCARSLGRYYAMDYWGQGTSVTVSS
VL: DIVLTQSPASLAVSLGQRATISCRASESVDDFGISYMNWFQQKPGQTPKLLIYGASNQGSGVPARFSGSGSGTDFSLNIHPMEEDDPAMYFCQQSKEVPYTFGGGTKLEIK
B9: M8a-6 (antibody, V domains shown)
VH: QVQLQQPGTELVMPGASVKLSCKTSGYTFTHYWMHWVKQRPGEGLEWIGEIAPSDNYVKYNQKFKGKSTLSVDRSSSTAYMQLSSLTSEDSAVYFCARPDNSGYPVYFDYWGQGTSLTVSS
VL: DIVMTQSQKFMSTSLGDRVSISCKASQDVGTTVAWYQQKPGQSPKLLIYWASTRHTGVPDRFTGTGSGTDYTLTISSVAAEDLALYYCQQHYNTPYTFGGGTKLEIE
B10: M8a-6 Fab (Fab, V domains shown)
VH: B9 VH
VL: B9 VL
B11: M8a-3 (antibody, V domains shown)
VH: QVQLQQPGAELVLPGASVKLSCKASGYTFTNYWMHWVKQRPGHGLEWIGEIDPFDTYIKINQKFKGKSTLTVDTSSSTAYMQLSSLTSEDSAVYYCARPDSSGYPVYFDYWGQGTTLTVSS
VL: DIVMTQSHKFMSTSVGDRVSITCKASQDVGTYIAWYQQKPGQSPKLLIYWASTRHTGVPDRFTGSGSGTNYTLTISSVQAEDLALYHCQQHYSTPYTFGGGTKLEIK
B12: HSW-1 (antibody, V domains shown)
VH: QVQLQQPGAELVKPGTSMKLSCKASGYTFTSYWMHWVKQRPGQGLEWIGMIHPNSGSTKYNENFKSKATLTVDKSSSTAYMQFSSLTSEDSAVYYCVRSGSYYGTTYDYFDYWGQGTTLTVSS
VL: DIVLTQSPASLAVSLGQRATISCRASESVNIYGNSFMHWYQQKPGQPPKLLIFRASNLESGIPVRFSGSGSRTDFTLTINPVEADDVATYYCHQSNEDPFTFGSGTKLEIK

What was measured:
SARS-CoV RBD [1] = target: T1, SARS-CoV RBD (SARS-CoV, UniProt P59594 318-510); assay: Beacon optofluidic screen: IgG secreted by single B cell, RBD on beads
SARS-CoV-2 WA1 RBD [2] = target: T2, SARS-CoV-2 WA1 RBD (SARS-CoV-2 WA1, UniProt P0DTC2 319-539); assay: X-ray crystallography of SEC-purified Fab-RBD complex (PDB 7UZD)
T2 construct: range 319-539

SARS-CoV RBD [3] = target: T1, SARS-CoV RBD; assay: ELISA, coated RBD, purified IgG
SARS-CoV-2 WA1 RBD [4] = target: T2, SARS-CoV-2 WA1 RBD; assay: Beacon optofluidic screen: IgG secreted by single B cell, RBD on beads
SARS-CoV-2 WA1 RBD [5] = target: T2, SARS-CoV-2 WA1 RBD; assay: X-ray crystallography of SEC-purified Fab-RBD complex (PDB 7UZC)
SARS-CoV-2 WA1 RBD [6] = target: T2, SARS-CoV-2 WA1 RBD; assay: ELISA, purified IgG
SARS-CoV-2 WA1 RBD [7] = target: T2, SARS-CoV-2 WA1 RBD; assay: X-ray crystallography of SEC-purified Fab-RBD complex

Row | Binder | binding result (SARS-CoV RBD [1]) | binding result (SARS-CoV-2 WA1 RBD [4]) | other results
1 | B1 | binds | – | –
2 | B2 | binds | – | –
3 | B3 | – | – | binding result (SARS-CoV-2 WA1 RBD [2]): binds
4 | B4 | – | binds | binding result (SARS-CoV RBD [3]): no binding (tested: up to 100 µg/mL IgG)
5 | B5 | – | – | binding result (SARS-CoV-2 WA1 RBD [5]): binds
6 | B6 | binds | binds | –
7 | B7 | binds | – | binding result (SARS-CoV-2 WA1 RBD [6]): binds
8 | B8 | binds | – | –
9 | B9 | – | binds | –
10 | B10 | – | – | binding result (SARS-CoV-2 WA1 RBD [7]): binds
11 | B11 | binds | – | –
12 | B12 | – | binds | binding result (SARS-CoV RBD [3]): no binding (tested: up to 100 µg/mL IgG)
